# The supplement of paper PMC9732359
# ± gives the uncertainty stated by the source.
# Experiment: protein stability index of a GFP-peptide fusion (yeast GPS) (PSI 1-4); higher = more stable; sorted into four equal gates, so the index is relative within each strain
# Summary of the method: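 Tiled 17-residue peptides from yeast proteins were fused downstream of GFP on a plasmid that also expresses Cherry, and the pooled library was carried in yeast. Mid-log cultures grown in leucine-free medium were sorted into four equal gates by GFP/Cherry fluorescence ratio. Plasmids from each gate were PCR-amplified and Illumina-sequenced, and reads were assigned to strains by barcodes. Each peptide's protein stability index is the sum, over gates, of the gate's read frequency multiplied by its gate number.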
Sequence,protein stability index (doa10∆),protein stability index (pdr5∆),protein stability index (san1∆),protein stability index (ubr1∆)
YLKDNITLLTRQRELLI [GRR1],2.15 ± 0.061,2.25 ± 0.069,1.84 ± 0.076,1.76 ± 0.052
TSNGLKKNPNWLEEYHP [FAS1],3.3 ± 0.17,3.22 ± 0.15,3.48 ± 0.098,3.38 ± 0.11
TSFDRTKKTITPMGGFV [RPL3],3.04 ± 0.12,3.03 ± 0.12,2.79 ± 0.089,3.21 ± 0.24
LENQKDLVIVDENELKK [MTW1],3.65 ± 0.23,–,–,–
PVSLLNSQLVGKPHFSL [PCI8],2.1 ± 0.084,2.37 ± 0.074,1.88 ± 0.21,2.21 ± 0.052
EKRYDDKLLDFIRYDVK [CSN12],3.3 ± 0.063,3.25 ± 0.066,3.22 ± 0.046,3.17 ± 0.066
PAVKQWDLLPEPIRFLP [SWI1],2.28 ± 0.058,2.27 ± 0.069,2.33 ± 0.055,2.53 ± 0.072
PTLGERLDNLQDIKKAK [DSN1],1.54 ± 0.082,1.25 ± 0.041,2.71 ± 0.085,2.86 ± 0.064
TSQKMKKMVYVLDSMTK [SRP54],2.79 ± 0.11,3.12 ± 0.11,3.13 ± 0.21,2.96 ± 0.078
VNEDPIFHPMIHYSWSF [YML103C/NUP188],2.56 ± 0.056,2.46 ± 0.039,2.42 ± 0.045,2.49 ± 0.046
KELKEKEAAESPEEADV [PUP2],3.44 ± 0.082,3.56 ± 0.086,3.02 ± 0.057,3.32 ± 0.054
ANATAAESDVAKQLAAL [RPL16A],3 ± 0.043,2.84 ± 0.061,3.19 ± 0.046,3.23 ± 0.05
SSGQDKKKKKGSNQKPK [RPT2],3.08 ± 0.21,2.92 ± 0.28,–,3.1 ± 0.15
MDFFNLNNNNNNNNTTT [SWI1],2.97 ± 0.072,3.33 ± 0.081,2.53 ± 0.13,2.35 ± 0.067
LFVFTEGWPKFQDTLYK [QCR10],3.21 ± 0.19,2.91 ± 0.22,3.08 ± 0.12,–
DSLNDDLNKENKLLRRK [YIL149C/MLP2],2.98 ± 0.21,3.24 ± 0.18,3.01 ± 0.15,3.31 ± 0.065
DTQTFSVLLQQLLTPGS [YGL172W/NUP49],1.31 ± 0.13,1.43 ± 0.095,1.36 ± 0.1,1.48 ± 0.058
DQFHRDTISAITHQLNN [RPC25],1.54 ± 0.049,2.12 ± 0.057,1.84 ± 0.076,1.67 ± 0.034
ILEEKTDLHLPKKEYDD [NSL1],1.76 ± 0.057,2.39 ± 0.12,2.21 ± 0.12,2.66 ± 0.061
HRWGTKKLPRKTHRGLR [RPL3],3.32 ± 0.11,3.04 ± 0.13,3.12 ± 0.084,3.34 ± 0.061
ADGSSYMEQGNNKIITL [SKI6],2.79 ± 0.044,3.07 ± 0.059,2.82 ± 0.04,3.015 ± 0.029
VLNQQLPIESQFVSKLV [BRR2],1.74 ± 0.066,1.98 ± 0.048,1.96 ± 0.1,2.01 ± 0.043
ERTKNAQFIVISLRNNM [SMC4],2.72 ± 0.13,1.3 ± 0.063,1.33 ± 0.093,1.73 ± 0.08
GLIVNPVKVSGTIKKIE [POP5],2.41 ± 0.16,2.97 ± 0.19,2.95 ± 0.12,2.26 ± 0.15
FGAKMSRTLILSILNEI [SIN4],1.84 ± 0.063,1.42 ± 0.044,1.36 ± 0.088,1.68 ± 0.039
HDGGFDLVHIKDSLDNT [RPS4A],2.05 ± 0.079,2.26 ± 0.06,2.73 ± 0.12,2.33 ± 0.04
KDMLYSGITGECLQAYI [RET1],2.65 ± 0.047,2.68 ± 0.051,2.5 ± 0.052,2.31 ± 0.057

Sequence,protein stability index (doa10∆),protein stability index (pdr5∆),protein stability index (san1∆),protein stability index (ubr1∆)
LTLQEDYIKDEQRHLKR [RPT3],3.43 ± 0.11,3.18 ± 0.081,3.14 ± 0.085,3.32 ± 0.07
PSASLKLHHDLKLCLGD [YMR129W/POM152],3.06 ± 0.073,3.09 ± 0.07,2.92 ± 0.083,3.03 ± 0.054
NENENFGYDIPLLDIVL [YML103C/NUP188],2.48 ± 0.053,2.81 ± 0.064,2.92 ± 0.049,2.56 ± 0.056
QWFEAHYGQTLGKKKNV [RPS8A],2.556 ± 0.025,2.876 ± 0.025,2.44 ± 0.027,2.647 ± 0.022
KIRARSITLQGDVYDPE [SMC2],2.07 ± 0.065,2.19 ± 0.059,1.79 ± 0.16,1.86 ± 0.067
FQNTNTRSALKLVRESE [QCR2],2.7 ± 0.078,2.94 ± 0.074,2.81 ± 0.088,2.64 ± 0.07
NQLLAALVAYTPTDVIG [RRP6],1.66 ± 0.045,1.39 ± 0.048,1.25 ± 0.072,1.24 ± 0.032
HMAKGLYYGSYRSPRVL [COB],1.6 ± 0.15,1.1 ± 0.12,1.3 ± 0.13,–
QNIILRSTMMKFLKIAS [RPN3],2.15 ± 0.072,2.42 ± 0.067,2.86 ± 0.077,3.03 ± 0.048
KLTRELEKKFQDRHVIF [RPS7A],3.08 ± 0.14,3.5 ± 0.18,3.09 ± 0.086,3.18 ± 0.1
QAINLGQVVLTPLTFAL [RPL14A],1.53 ± 0.065,1.43 ± 0.049,1.25 ± 0.09,1.35 ± 0.067
TETKRLVVIRFGRKNDR [DIB1],2.87 ± 0.11,2.24 ± 0.089,2.03 ± 0.12,2.89 ± 0.065
LQELIVNGPNVHPGANY [RPO31],2.83 ± 0.071,2.99 ± 0.092,2.99 ± 0.072,2.45 ± 0.047
WFLDHNYIENMNEMCKK [RPN8],3.54 ± 0.18,3.26 ± 0.12,2.93 ± 0.077,3.2 ± 0.083
DLIRSESMLHLSIWIKN [IRR1],1.62 ± 0.057,2.01 ± 0.05,1.51 ± 0.098,1.8 ± 0.04
ALIDTEFANFELKDICS [YML103C/NUP188],2.12 ± 0.063,2.49 ± 0.06,2.65 ± 0.063,2.16 ± 0.037
TANAKHTSSNSREIAQP [SMB1],2.91 ± 0.14,2.94 ± 0.099,3.19 ± 0.07,3.33 ± 0.17
EENGDSIKEHSTTMDGA [MED1],3.32 ± 0.19,–,3.21 ± 0.14,3.57 ± 0.14
KDVAKPTGPKTAIDKNG [FAS2],3.31 ± 0.18,3.04 ± 0.11,3.06 ± 0.074,3.19 ± 0.1
KSLDEQLLLLSDERAKL [LRP1],2.73 ± 0.095,3.2 ± 0.1,2.84 ± 0.046,2.91 ± 0.088
GEFSGKNFSPTKRVEKP [RRP6],2.37 ± 0.089,2.47 ± 0.094,2.54 ± 0.078,3.22 ± 0.059
RVMKSLSINEKDFVTMA [YCG1],2.35 ± 0.073,2.06 ± 0.052,2.1 ± 0.082,2.16 ± 0.042
SLNSMTNAKLPNVDLVT [RGR1],2.53 ± 0.087,2.74 ± 0.064,2.52 ± 0.061,2.46 ± 0.041
RNETSVDEEDENGTHND [YCG1],3.08 ± 0.26,–,–,–
VGGKSTVQNEILGDLGK [FAS2],3.02 ± 0.075,2.92 ± 0.1,2.18 ± 0.1,3.25 ± 0.11
LKSKVIDSPELLSLIST [RPN7],2.48 ± 0.038,2.63 ± 0.045,2.4 ± 0.049,2.61 ± 0.041
